In patent US20040224408A1, “THAP proteins as nuclear receptors for chemokines and roles in transcriptional regulation, cell proliferation and cell differentiation” (published 2004):
Positions count from the first letter of the chain named. In names and notes the source's numbering stands. One block for each binder: values may come before it.

Key:
[1] = target: T1, human THAP2 (human, UniProt Q9H0W7 1-228, limits assumed); experiment: yeast two-hybrid using Par-4 wild type bait (FIG. 10B)
T1 construct: also called hTHAP2
T1 sequence (Q9H0W7 whole entry): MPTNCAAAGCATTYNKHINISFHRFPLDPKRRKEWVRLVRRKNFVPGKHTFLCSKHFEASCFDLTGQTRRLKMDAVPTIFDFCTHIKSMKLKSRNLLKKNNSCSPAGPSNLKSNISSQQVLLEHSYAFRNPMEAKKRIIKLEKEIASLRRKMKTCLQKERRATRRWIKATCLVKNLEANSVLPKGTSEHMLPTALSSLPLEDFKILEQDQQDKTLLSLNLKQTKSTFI

[2] = target: T2, human THAP3 (human, UniProt Q8WTV1 1-239, limits assumed); experiment: as above
T2 construct: also called hTHAP3
T2 sequence: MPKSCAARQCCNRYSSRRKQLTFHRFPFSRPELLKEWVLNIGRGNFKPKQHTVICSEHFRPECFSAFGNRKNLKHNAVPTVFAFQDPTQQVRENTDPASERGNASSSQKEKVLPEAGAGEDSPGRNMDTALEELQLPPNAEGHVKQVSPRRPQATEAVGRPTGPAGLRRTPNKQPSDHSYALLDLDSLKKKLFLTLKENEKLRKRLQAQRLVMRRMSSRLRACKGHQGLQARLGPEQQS

[3] = target: T3, human THAP1 (THanatos (death)-Associated Protein-1), full length (human, UniProt Q9NVV9 1-213); experiment: yeast two-hybrid, both orientations (His/Ade selection)
T3 construct: also called hTHAP1; FLJ10477
T3 sequence: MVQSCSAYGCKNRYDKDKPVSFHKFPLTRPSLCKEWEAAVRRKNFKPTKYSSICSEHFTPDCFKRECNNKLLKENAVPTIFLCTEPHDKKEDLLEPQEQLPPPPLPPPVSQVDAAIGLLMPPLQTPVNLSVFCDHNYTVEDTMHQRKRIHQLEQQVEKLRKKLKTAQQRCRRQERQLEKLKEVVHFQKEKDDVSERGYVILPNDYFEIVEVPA
Description: We then examined whether the leucine zipper/death domain at the C-terminus of Par4, previously shown to be involved in Par4 binding to WT-1 and aPKC, was required for the interaction between THAP1 and Par4. Two Par4 mutants were constructed for that purpose, Par4A and Par4DD. Par4A lacks the leucine zipper/death domain while Par4DD contains this domain. pGBKT7-Par4A(amino acids 1-276) and pGADT7-Par4A. were constructed by sub-cloning a EcoRI-BglII fragment from pGADT7-Par4 into the EcoRI and BamHI sites of pGBKT7 and pGADT7. Par4DD (amino acids 250-342) was amplified by PCR, using pGBKT7-Par4 as template, with primers Par4.4 (5′-[…]-3′) (SEQ ID NO: 193) and Par4.5, and cloned into the EcoRI and BamHI sites of pGBKT7 and pGADT7 to obtain pGBKT7-Par4DD and pGADT7-Par4DD. Two-hybrid interaction between THAP1 and Par4 mutants was tested by cotransformation of AH109 with pGBKT7-THAP1 and pGADT7-Par4A or pGADT7-Par4DD and selection of transformants by His and Ade double auxotrophy according to manufacturer's instructions ([…] two-hybrid system 3, Clontech). […] Similar results were obtained when two-hybrid experiments were performed in the opposite orientation using Par4 or Par4 mutants (Par4A and Par4DD) as baits instead of THAP1 (FIG. 3A).

[4] = target: T4, Par4 leucine zipper/death domain (Par4DD, amino acids 250-342) (human, UniProt Q96IZ0 248-340); experiment: yeast two-hybrid
T4 construct: also called myc-Par4DD; mycPar4DD
T4 chain: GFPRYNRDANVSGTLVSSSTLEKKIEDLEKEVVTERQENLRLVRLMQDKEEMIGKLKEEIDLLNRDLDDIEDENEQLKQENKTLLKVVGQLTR
Experimental: Two-hybrid interaction between THAP1 mutants and Par4DD was tested by cotransformation of AH109 with pGBKT7-THAP1-C1, -C2, -C3, -N1, -N2 or -N3 and pGADT7-Par4DD and selection of transformants by His and Ade double auxotrophy according to manufacturer's instructions ([…] two-hybrid system 3, Clontech).
for mutant THAP1ΔQRCRR. The resulting PCR fragments were digested with EcoRI and BamHI, and cloned in frame downstream of the Gal4 Binding Domain (Gal4-BD) in pGBKT7 two-hybrid vector (Clontech) to generate pGBKT7-THAP1-RR/AA and −Δ(QRCRR), or downstream of the Enhanced Green Fluorescent Protein (EGFP) ORF in pEGFP.C2 vector (Clontech) to generate pEGFP.C2-THAP1-RR/AA and −Δ(QRCRR). THAP1 RR/AA and THAP1ΔQRCRR THAP1 mutants were then tested in the three THAP1/Par4 interaction assays (two-hybrid assay, in vitro THAP1/Par4 interaction assay, in vivo THAP1/Par4 interaction assay) as described above for the THAP1-C1, -C2, -C3, -N1, -N2 or -N3 mutants.

[5] = target: T5, GST-Par4DD fusion protein (pGEX-2T-Par4DD, Par4 amino acids 250-342) (human, UniProt Q96IZ0 248-340); experiment: in vitro THAP1/Par4 interaction assay (GST pull-down with GST-Par4DD)
T5 construct: Expressed in E. coli DH5alpha and immobilized on glutathione sepharose; not shown: Glutathione S-transferase (GST) encoded by the pGEX-2T prokaryotic expression vector (Amersham Pharmacia Biotech); N-ter
T5 chain: T4 chain
Experimental: THAP1 mutants were also tested in the in vitro THAP1/Par4 interaction assay. In vitro-translated THAP1 mutants were generated with the TNT-coupled reticulocyte lysate system (Promega, Madison, Wis., USA) using pGBKT7-THAP1-C1, -C2, -C3, -N1, -N2 or -N3 vector as template. 25 μl of each ³⁵S-labelled THAP1 mutant was incubated with immobilized GST or GST-Par4 protein overnight at 4° C., in the following binding buffer: 10 mM NaPO4 pH 8.0, 140 mM NaCl, 3 mM MgCl2, 1 mM dithiothreitol (DTT), 0.05% NP40, and 0.2 mM phenylmethyl sulphonyl fluoride (PMSF), 1 mM Na Vanadate, 50 mM β Glycerophosphate, 25 μg/ml chimotrypsine, 5 μg/ml aprotinin, 10 μg/ml Leupeptin. Beads were then washed 5 times in 1 ml binding buffer. Bound proteins were eluted with 2×Laemmli SDS-PAGE sample buffer, fractionated by 10% SDS-PAGE and visualized by fluorography using Amplify (Amersham Pharmacia Biotech). As expected, THAP1-C1, -C2, -C3, -and -N3 interacted with GST/Par4DD (FIG. 4B).
for mutant THAP1ΔQRCRR. The resulting PCR fragments were digested with EcoRI and BamHI, and cloned in frame downstream of the Gal4 Binding Domain (Gal4-BD) in pGBKT7 two-hybrid vector (Clontech) to generate pGBKT7-THAP1-RR/AA and −Δ(QRCRR), or downstream of the Enhanced Green Fluorescent Protein (EGFP) ORF in pEGFP.C2 vector (Clontech) to generate pEGFP.C2-THAP1-RR/AA and −Δ(QRCRR). […]

[6] = target: T3, human THAP1 (THanatos …); experiment: yeast two-hybrid, BD7-THAP1 with AD7-SLC/CCL21ΔCOOH; identical results in the opposite orientation
Description: For two-hybrid assays, yeast cells were cotransformed with BD7-THAP1 and AD7-SLC/CCL21 or AD7-SLC/CCL21ΔCOOH expression vectors. AD7-SLC/CCL21 or AD7-SLC/CCL21ΔCOOH expression vectors were generated by subcloning BamHI fragment (encoding SLC amino acids 24-134) or BamHI-PstI fragment (encoding SLC amino acids 24-102) from pGKT7-SLC/CCL21 (see example 15) into pGADT7 expression vector (Clontech). Transformants were selected on media lacking histidine and adenine. […] Identical results were obtained by cotransformation of AD7-THAP1 with BD7-SLC/CCL21 or BD7-SLC/CCL21ΔCOOH.

binding result [1]: binds
binding result [2]: binds
B1: human prostate apoptosis response-4 protein (PAR4), full length (other)
chain: MATGGYRTSSGLGGSTTDFLEEWKAKREKMRAKQNPPGPAPPGGGSSDAAGKPPAGALGTPAAAAANELNNNLPGGAPAAPAVPGPGGVNCAVGSAMLTRAPPARGPRRSEDEPPAASASAAPPPQRDEEEPDGVPEKGKSSGPSARKGKGQIEKRKLREKRRSTGVVNIPAAECLDEYEDDEAGQKERKREDAITQQNTIQNEAVNLLDPGSSYLLQEPPRTVSGRYKSTTSVSEEDVSSRYSRTDRSGFPRYNRDANVSGTLVSSSTLEKKIEDLEKEVVTERQENLRLVRLMQDKEEMIGKLKEEIDLLNRDLDDIEDENEQLKQENKTLLKVVGQLTR
notes: Tested as a Gal4-BD (pGBKT7-Par4) or Gal4-AD (pGADT7-Par4) fusion in yeast two-hybrid; also called Par4 wild type
binding result [3]: binds

binding result [5]: no binding
B2: THAP1 RR/AA mutant (R171A, R172A) (other)
chain: T3 sequence with R171A, R172A
notes: Tested as a Gal4-BD fusion (pGBKT7), as in vitro translated protein and as an EGFP fusion; also called THAP RR/AA
binding result [4]: no binding

B3: SLC/CCL21ΔCOOH deletion mutant lacking the basic carboxy-terminal extension (ligand)
chain: SDGGAQDCCLKYSQRKIPAKVVRSYRKQEPSLGCSIPAILFLPRKRSQAELCADPKELWVQQLMQHLDKTPSPQKPAQG
notes: Tested as a Gal4-AD or Gal4-BD fusion and as in vitro translated protein; also called SLC/CCL21?COOH
binding result [6]: binds
